US9468682B2, “Compositions and methods for enhancing penetration of biologically active substances into tissues or organs” (Joint-stock company “High Tech”, priority 2013, dated 2016)

Columns and labels:
[1] = Franz diffusion cell skin permeability for insulin, antibiotics and mesotherapy components; conditions: FIG. 1; donor insulin 5 IU/ml or 0.25 mg/ml; HPLC
Excerpt: The receptor solution aliquots were collected at different intervals and analyzed using HPLC.

[2] = Delivery through skin and mucous membranes in animals; assay type: in vivo; conditions: with ammonium sulfate; rats and guinea pigs
[3] = In vitro skin permeability, Franz diffusion cell, 3H-labeled substances; conditions: Table 4
Protocol: The vertical Franz diffusion cell was used (PermeGear, Bethlehem, USA) with the effective diffusion surface of 2 cm^2.
The experiments were carried out using the skin of male species of Sprague-Dawley rats, weight 110-120 g, taken from the front abdominal wall. Hair and adipose tissue were removed from the skin; the skin was soaked in normal saline and placed into the diffusion cell. The following solutions labeled with ^3H in accordance with the standard method (Klimova et. al. 1993) were added into the donor chamber: complex of collagenolytic digestive protease from hydrobionts (Fermencol™, Table 3), Fe-superoxide dismutase from E. coli (Table 4) and fragments of rRNA 25-55 bases in length (Table 5).

Molecule: insulin
- Effect of further increase of ammonium sulfate concentration on insulin diffusion from donor to acceptor solution [1]: does not influence the effectiveness of insulin diffusion
- Delivery through skin and mucous membranes [2]: Positive results

B1: Fe-superoxide dismutase from E. coli: Fe-superoxide dismutase from E. coli, labeled with 3H (protein, UniProt P0AGD3 2-193, looked up)
Superoxide dismutase [Fe]: SFELPALPYAKDALAPHISAETIEYHYGKHHQTYVTNLNNLIKGTAFEGKSLEEIIRSSEGGVFNNAAQVWNHTFYWNCLAPNAGGEPTGKVAEAIAASFGSFADFKAQFTDAAIKNFGSGWTWLVKNSDGKLAIVSTSNAGTPLTTDATPLLTVDVWEHAYYIDYRNARPGYLEHFWALVNWEFVAKNLAA
modifications: tritium (3H) label
- ^3H-labeled marker in receptor medium, % from initial ([3]; ammonium sulfate 0 M in donor medium, incubation 10 hrs): 0.01%
- ^3H-labeled marker in receptor medium, % from initial ([3]; ammonium sulfate 0 M in donor medium, incubation 20 hrs): 0.05%
- ^3H-labeled marker in receptor medium, % from initial ([3]; ammonium sulfate 0 M in donor medium, incubation 30 hrs): 0.07%
- ^3H-labeled marker in receptor medium, % from initial ([3]; ammonium sulfate 0 M in donor medium, incubation 40 hrs): 0.11%
- ^3H-labeled marker in receptor medium, % from initial ([3]; ammonium sulfate 0 M in donor medium, incubation 60 hrs): 0.34%
- ^3H-labeled marker in receptor medium, % from initial ([3]; ammonium sulfate 0.1 M in donor medium, incubation 10 hrs): 5.31%
- ^3H-labeled marker in receptor medium, % from initial ([3]; ammonium sulfate 0.1 M in donor medium, incubation 20 hrs): 10.00%
- ^3H-labeled marker in receptor medium, % from initial ([3]; ammonium sulfate 0.1 M in donor medium, incubation 30 hrs): 12.06%
- ^3H-labeled marker in receptor medium, % from initial ([3]; ammonium sulfate 0.1 M in donor medium, incubation 40 hrs): 17.99%
- ^3H-labeled marker in receptor medium, % from initial ([3]; ammonium sulfate 0.1 M in donor medium, incubation 60 hrs): 20.11%
- ^3H-labeled marker in receptor medium, % from initial ([3]; ammonium sulfate 0.2 M in donor medium, incubation 10 hrs): 5.67%
- ^3H-labeled marker in receptor medium, % from initial ([3]; ammonium sulfate 0.2 M in donor medium, incubation 20 hrs): 12.56%
- ^3H-labeled marker in receptor medium, % from initial ([3]; ammonium sulfate 0.2 M in donor medium, incubation 30 hrs): 17.90%
- ^3H-labeled marker in receptor medium, % from initial ([3]; ammonium sulfate 0.2 M in donor medium, incubation 40 hrs): 27.60%
- ^3H-labeled marker in receptor medium, % from initial ([3]; ammonium sulfate 0.2 M in donor medium, incubation 60 hrs): 35.11%
- ^3H-labeled marker in receptor medium, % from initial ([3]; ammonium sulfate 0.5 M in donor medium, incubation 10 hrs): 7.80%
- ^3H-labeled marker in receptor medium, % from initial ([3]; ammonium sulfate 0.5 M in donor medium, incubation 20 hrs): 10.81%
- ^3H-labeled marker in receptor medium, % from initial ([3]; ammonium sulfate 0.5 M in donor medium, incubation 30 hrs): 16.94%
- ^3H-labeled marker in receptor medium, % from initial ([3]; ammonium sulfate 0.5 M in donor medium, incubation 40 hrs): 31.00%
- ^3H-labeled marker in receptor medium, % from initial ([3]; ammonium sulfate 0.5 M in donor medium, incubation 60 hrs): 35.30%
- ^3H-labeled marker in receptor medium, % from initial ([3]; ammonium sulfate 1.0 M in donor medium, incubation 10 hrs): 7.67%
- ^3H-labeled marker in receptor medium, % from initial ([3]; ammonium sulfate 1.0 M in donor medium, incubation 20 hrs): 10.33%
- ^3H-labeled marker in receptor medium, % from initial ([3]; ammonium sulfate 1.0 M in donor medium, incubation 30 hrs): 16.74%
- ^3H-labeled marker in receptor medium, % from initial ([3]; ammonium sulfate 1.0 M in donor medium, incubation 40 hrs): 31.00%
- ^3H-labeled marker in receptor medium, % from initial ([3]; ammonium sulfate 1.0 M in donor medium, incubation 60 hrs): 35.11%
